The stoichiometry N is a count of units in the complex or per binding partner.

In PMC2663784 one finds stoichiometry N data, which are given here for one molecule.

Several values for one entry are separate records, joined by “and”; a condition that tells them apart may be missing. Equal entries are not always repeated.

The assay addresses humanized 3S193 VL-0-VH scFv multimer (humanized (mouse CDRs on human frameworks)). Briefly: SEC. In general terms: In gel filtration, larger molecules generally elute earlier.

B1: humanized 3S193 VL-0-VH scFv multimer (scFv, V domains shown)
VH: EVQLVESGGGVVQPGRSLRLSCSTSGFTFSDYYMYWVRQAPGKGLEWVAYMSNVGAITDYPDTVKGRFTISRDNSKNTLFLQMDSLRPEDTGVYFCARGTRDGSWFAYWGQGTPVTVSS
VL: DIQMTQSPSSLSASVGDRVTITCRSSQRIVHSNGNTYLEWYQQTPGKAPKLLIYKVSNRFSGVPSRFSGSGSGTDFTFTISSLQPEDIATYYCFQGSHVPFTFGQGTKLQIT
With B1, the stoichiometry N was 3 and 4.
